Data: PMC9402439

How the values were obtained:
[1] = molecular target: human CST (CTC1–STN1–TEN1) heterotrimer, recombinant, from HEK293T cells (human) (UniProt Q2NKJ3)
[2] = molecular target: human CST (CTC1–STN1–TEN1) heterotrimer, recombinant, from HEK293T cells (human) (UniProt Q2NKJ3); assay: co-IP; successive anti-FLAG and anti-HA immunopurifications of 3×FLAG-CTC1, Myc-STN1 and HA-TEN1 from transfected HEK293T cells, 150 mM NaCl in the wash and elution buffers; subunits found by western blot and quantified against insect-cell standards

Sequence of Polα–primase (DNA polymerase α-primase), endogenous human enzyme, four subunits (Q14181 whole entry, looked up, tested part not stated): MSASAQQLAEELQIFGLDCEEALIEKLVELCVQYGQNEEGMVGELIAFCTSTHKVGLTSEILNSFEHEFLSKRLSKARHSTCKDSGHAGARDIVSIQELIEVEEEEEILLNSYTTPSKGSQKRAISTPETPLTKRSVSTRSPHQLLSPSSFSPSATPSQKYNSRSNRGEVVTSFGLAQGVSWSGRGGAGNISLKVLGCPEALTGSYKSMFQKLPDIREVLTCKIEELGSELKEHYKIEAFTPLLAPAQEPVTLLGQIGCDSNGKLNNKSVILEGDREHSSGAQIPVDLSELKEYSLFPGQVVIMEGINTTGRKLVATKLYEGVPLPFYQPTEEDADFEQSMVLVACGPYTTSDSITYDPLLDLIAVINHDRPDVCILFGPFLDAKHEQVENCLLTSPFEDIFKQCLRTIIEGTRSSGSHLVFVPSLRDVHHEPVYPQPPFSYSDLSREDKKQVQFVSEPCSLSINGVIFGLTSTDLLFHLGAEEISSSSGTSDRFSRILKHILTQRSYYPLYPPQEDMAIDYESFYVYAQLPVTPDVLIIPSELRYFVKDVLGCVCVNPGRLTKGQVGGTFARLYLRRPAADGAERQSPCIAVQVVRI
Sequence of Polα–primase (DNA polymerase α-primase), endogenous human enzyme, four subunits (P09884 whole entry, looked up, tested part not stated): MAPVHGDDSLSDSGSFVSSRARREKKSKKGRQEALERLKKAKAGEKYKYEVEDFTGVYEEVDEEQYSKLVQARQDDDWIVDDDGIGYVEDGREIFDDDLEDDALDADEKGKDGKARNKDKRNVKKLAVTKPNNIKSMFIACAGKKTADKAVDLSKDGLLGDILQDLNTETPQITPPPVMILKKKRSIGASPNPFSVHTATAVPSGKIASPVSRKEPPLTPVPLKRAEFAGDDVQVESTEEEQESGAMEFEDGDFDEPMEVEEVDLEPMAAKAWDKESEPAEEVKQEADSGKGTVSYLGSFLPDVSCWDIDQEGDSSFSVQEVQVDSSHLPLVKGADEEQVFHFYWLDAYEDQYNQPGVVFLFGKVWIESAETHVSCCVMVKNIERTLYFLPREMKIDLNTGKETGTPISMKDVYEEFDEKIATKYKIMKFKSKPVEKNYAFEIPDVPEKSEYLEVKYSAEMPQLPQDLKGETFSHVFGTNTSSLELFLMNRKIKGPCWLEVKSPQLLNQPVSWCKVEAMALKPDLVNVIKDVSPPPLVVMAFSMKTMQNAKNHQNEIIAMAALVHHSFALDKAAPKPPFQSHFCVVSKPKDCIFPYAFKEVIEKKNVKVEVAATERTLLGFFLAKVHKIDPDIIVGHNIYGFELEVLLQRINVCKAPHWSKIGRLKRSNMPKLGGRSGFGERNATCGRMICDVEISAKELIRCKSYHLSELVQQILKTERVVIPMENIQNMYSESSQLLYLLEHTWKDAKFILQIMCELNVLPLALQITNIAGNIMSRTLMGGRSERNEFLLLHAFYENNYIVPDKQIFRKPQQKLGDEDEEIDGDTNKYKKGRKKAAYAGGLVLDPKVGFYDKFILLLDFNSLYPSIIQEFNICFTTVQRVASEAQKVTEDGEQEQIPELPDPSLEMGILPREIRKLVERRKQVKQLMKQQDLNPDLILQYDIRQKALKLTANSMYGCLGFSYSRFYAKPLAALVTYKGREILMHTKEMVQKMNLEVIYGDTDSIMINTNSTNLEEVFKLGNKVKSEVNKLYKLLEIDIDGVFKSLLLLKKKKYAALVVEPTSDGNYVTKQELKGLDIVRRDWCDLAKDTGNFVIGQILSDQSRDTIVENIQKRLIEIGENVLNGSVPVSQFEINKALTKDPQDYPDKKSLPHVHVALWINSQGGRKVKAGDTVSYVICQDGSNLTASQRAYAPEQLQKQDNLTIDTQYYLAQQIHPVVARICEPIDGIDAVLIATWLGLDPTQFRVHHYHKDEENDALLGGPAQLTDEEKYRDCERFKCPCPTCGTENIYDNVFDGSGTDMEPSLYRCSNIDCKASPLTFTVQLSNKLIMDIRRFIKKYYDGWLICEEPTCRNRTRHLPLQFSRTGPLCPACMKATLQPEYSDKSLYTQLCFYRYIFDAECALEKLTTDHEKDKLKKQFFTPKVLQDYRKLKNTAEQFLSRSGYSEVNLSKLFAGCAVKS
Sequence of human CST (CTC1–STN1–TEN1) heterotrimer, recombinant, from HEK293T cells (human) (Q2NKJ3 whole entry, chain 1 of 3): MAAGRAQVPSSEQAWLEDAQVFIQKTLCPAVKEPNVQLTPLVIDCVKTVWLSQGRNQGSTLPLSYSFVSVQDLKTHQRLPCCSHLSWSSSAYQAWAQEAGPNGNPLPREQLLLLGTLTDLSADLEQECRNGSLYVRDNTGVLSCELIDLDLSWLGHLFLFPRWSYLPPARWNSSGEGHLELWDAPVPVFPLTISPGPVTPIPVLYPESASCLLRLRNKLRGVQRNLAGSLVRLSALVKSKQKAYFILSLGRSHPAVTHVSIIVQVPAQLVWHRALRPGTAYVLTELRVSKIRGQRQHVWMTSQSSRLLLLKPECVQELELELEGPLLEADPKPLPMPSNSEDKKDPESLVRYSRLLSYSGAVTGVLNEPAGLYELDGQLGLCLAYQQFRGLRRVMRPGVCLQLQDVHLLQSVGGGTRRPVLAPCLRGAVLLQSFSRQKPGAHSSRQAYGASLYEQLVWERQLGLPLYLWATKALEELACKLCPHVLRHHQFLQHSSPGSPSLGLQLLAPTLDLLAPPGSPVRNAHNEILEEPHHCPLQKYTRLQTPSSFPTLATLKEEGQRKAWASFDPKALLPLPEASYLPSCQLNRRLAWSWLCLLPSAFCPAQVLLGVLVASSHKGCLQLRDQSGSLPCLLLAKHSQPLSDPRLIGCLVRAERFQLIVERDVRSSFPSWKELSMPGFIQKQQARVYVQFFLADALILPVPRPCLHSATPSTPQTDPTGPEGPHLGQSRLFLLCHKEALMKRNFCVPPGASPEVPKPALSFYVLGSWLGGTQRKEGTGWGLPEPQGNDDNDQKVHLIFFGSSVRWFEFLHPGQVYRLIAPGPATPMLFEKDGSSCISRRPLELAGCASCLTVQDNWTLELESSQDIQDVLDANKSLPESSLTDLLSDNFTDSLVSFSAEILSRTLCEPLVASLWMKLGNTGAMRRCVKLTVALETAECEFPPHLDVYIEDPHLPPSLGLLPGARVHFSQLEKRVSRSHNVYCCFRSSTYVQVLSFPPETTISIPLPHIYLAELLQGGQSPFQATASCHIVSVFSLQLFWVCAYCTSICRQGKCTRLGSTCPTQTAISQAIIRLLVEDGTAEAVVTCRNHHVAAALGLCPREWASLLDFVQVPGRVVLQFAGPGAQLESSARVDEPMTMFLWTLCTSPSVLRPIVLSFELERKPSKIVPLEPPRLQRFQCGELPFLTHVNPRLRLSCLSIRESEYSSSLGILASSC
Sequence of human CST (CTC1–STN1–TEN1) heterotrimer, recombinant, from HEK293T cells (human) (Q9H668 whole entry, chain 2 of 3, further chain): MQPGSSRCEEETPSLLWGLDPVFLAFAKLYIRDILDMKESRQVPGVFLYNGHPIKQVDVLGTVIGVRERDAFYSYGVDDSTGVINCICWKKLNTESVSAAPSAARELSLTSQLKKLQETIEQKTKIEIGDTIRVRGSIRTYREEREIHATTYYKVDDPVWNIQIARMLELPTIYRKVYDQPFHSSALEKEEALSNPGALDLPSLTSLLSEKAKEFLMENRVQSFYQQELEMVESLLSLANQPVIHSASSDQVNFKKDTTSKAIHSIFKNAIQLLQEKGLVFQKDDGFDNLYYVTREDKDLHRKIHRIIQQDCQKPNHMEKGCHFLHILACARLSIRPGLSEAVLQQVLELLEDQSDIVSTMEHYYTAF
Sequence of human CST (CTC1–STN1–TEN1) heterotrimer, recombinant, from HEK293T cells (human) (Q86WV5 whole entry, chain 3 of 3, further chain): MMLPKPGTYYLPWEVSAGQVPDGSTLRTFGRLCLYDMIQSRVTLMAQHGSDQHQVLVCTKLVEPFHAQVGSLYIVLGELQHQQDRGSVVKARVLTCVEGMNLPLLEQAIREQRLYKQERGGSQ

C-strand synthesis activity of CST–Polα–primase from HEK cells relative to recombinant human Polα–primase from insect cells, high concentrations of enzyme and template DNA (5 µM, 15×TEL) [1]: > 10 fold
C-strand synthesis activity of CST–Polα–primase from HEK cells relative to recombinant human Polα–primase from insect cells, standard reaction conditions (100 nM template) [1]: > 10000 fold
stoichiometry in the purified preparation (POLA per CST) [2]: 0.21 POLA per CST
Substance: Polα–primase (DNA polymerase α-primase), endogenous human enzyme, four subunits (from UniProt P09884 1-1462; Q14181 1-598) (complex)
